Measurements: PMC9133112, “The structural basis of Cdc7-Dbf4 kinase dependent targeting and phosphorylation of the MCM2-7 double hexamer” (Nature Communications, 2022)

T1: Mcm4 (Saccharomyces cerevisiae, UniProt P30665 1-933)
T1 construct: Mcm4, Saccharomyces cerevisiae, full length; Subunit of m2, written alone for the contacts seen in the cryo-EM structures
T1 sequence (looked up): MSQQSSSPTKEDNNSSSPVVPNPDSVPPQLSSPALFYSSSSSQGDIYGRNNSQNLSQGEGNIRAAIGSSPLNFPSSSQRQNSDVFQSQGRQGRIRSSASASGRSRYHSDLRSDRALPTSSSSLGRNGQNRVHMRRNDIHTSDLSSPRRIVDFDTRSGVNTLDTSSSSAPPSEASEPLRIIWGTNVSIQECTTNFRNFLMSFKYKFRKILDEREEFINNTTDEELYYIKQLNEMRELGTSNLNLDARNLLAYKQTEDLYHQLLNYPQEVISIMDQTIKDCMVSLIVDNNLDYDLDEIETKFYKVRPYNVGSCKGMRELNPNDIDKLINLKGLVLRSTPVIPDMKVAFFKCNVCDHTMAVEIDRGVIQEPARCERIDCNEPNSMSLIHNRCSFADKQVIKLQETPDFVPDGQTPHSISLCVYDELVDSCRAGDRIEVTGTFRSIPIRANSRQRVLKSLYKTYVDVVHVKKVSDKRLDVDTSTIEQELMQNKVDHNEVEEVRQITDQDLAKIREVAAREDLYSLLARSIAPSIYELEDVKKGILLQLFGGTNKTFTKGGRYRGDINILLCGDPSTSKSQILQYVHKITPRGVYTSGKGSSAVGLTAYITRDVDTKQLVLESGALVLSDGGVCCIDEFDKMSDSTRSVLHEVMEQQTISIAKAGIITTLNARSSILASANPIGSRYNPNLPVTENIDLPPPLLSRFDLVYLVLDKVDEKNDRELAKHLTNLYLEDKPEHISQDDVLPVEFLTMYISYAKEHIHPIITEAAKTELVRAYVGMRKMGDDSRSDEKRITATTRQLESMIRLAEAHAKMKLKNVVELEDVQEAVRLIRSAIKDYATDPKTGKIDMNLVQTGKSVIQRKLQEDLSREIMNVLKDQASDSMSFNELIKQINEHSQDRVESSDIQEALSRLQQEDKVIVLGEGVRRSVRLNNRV

T2: Mcm2 (Saccharomyces cerevisiae, UniProt P29469 1-868)
T2 construct: Mcm2, Saccharomyces cerevisiae, full length; Subunit of m2, written alone for the contacts seen in the cryo-EM structures
T2 sequence (looked up): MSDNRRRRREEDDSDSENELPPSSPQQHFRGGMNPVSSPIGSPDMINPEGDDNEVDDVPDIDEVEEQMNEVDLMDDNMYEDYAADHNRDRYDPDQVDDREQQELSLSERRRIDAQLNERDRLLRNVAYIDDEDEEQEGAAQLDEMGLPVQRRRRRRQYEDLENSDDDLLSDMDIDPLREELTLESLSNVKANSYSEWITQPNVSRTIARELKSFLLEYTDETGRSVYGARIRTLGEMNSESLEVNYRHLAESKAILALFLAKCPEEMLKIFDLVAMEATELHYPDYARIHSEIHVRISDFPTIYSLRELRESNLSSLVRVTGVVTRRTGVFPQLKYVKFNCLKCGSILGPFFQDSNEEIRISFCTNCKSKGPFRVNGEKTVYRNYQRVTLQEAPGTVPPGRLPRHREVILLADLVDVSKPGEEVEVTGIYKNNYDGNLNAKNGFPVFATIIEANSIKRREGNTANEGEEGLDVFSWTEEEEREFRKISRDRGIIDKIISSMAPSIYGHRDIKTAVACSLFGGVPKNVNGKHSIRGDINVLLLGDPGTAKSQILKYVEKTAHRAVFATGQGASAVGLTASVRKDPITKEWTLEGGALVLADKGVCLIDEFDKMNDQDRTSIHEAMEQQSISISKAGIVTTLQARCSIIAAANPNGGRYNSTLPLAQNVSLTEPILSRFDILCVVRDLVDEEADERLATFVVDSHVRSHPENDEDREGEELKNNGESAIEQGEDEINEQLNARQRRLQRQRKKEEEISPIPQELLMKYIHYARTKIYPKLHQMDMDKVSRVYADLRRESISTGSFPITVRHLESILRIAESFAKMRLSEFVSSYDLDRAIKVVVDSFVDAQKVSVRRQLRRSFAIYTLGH

B1: Mcm7 (natural protein, Saccharomyces cerevisiae, UniProt P38132 1-845, looked up)
chain: MSAALPSIQLPVDYNNLFNEITDFLVTFKQDTLSSDATRNENEDENLDAENIEQHLLEKGPKYMAMLQKVANRELNSVIIDLDDILQYQNEKFLQGTQADDLVSAIQQNANHFTELFCRAIDNNMPLPTKEIDYKDDVLDVILNQRRLRNERMLSDRTNEIRSENLMDTTMDPPSSMNDALREVVEDETELFPPNLTRRYFLYFKPLSQNCARRYRKKAISSKPLSVRQIKGDFLGQLITVRGIITRVSDVKPAVEVIAYTCDQCGYEVFQEVNSRTFTPLSECTSEECSQNQTKGQLFMSTRASKFSAFQECKIQELSQQVPVGHIPRSLNIHVNGTLVRSLSPGDIVDVTGIFLPAPYTGFKALKAGLLTETYLEAQFVRQHKKKFASFSLTSDVEERVMELITSGDVYNRLAKSIAPEIYGNLDVKKALLLLLVGGVDKRVGDGMKIRGDINVCLMGDPGVAKSQLLKAICKISPRGVYTTGKGSSGVGLTAAVMKDPVTDEMILEGGALVLADNGICCIDEFDKMDESDRTAIHEVMEQQTISISKAGINTTLNARTSILAAANPLYGRYNPRLSPLDNINLPAALLSRFDILFLMLDIPSRDDDEKLAEHVTYVHMHNKQPDLDFTPVEPSKMREYIAYAKTKRPVMSEAVNDYVVQAYIRLRQDSKREMDSKFSFGQATPRTLLGIIRLSQALAKLRLADMVDIDDVEEALRLVRVSKESLYQETNKSKEDESPTTKIFTIIKKMLQETGKNTLSYENIVKTVRLRGFTMLQLSNCIQEYSYLNVWHLINEGNTLKFVDDGTMDTDQEDSLVSTPKLAPQTTASANVSAQDSDIDLQDA
notes: Mcm7, Saccharomyces cerevisiae, full length; Subunit of m2, written alone for the contacts seen in the cryo-EM structures
B2: Dbf4 (natural protein, Saccharomyces cerevisiae, UniProt P32325 1-704, looked up)
chain: MVSPTKMIIRSPLKETDTNLKHNNGIAASTTAAGHLNVFSNDNNCNNNNTTESFPKKRSLERLELQQQQHLHEKKRARIERARSIEGAVQVSKGTGLKNVEPRVTPKELLEWQTNWKKIMKRDSRIYFDITDDVEMNTYNKSKMDKRRDLLKRGFLTLGAQITQFFDTTVTIVITRRSVENIYLLKDTDILSRAKKNYMKVWSYEKAARFLKNLDVDLDHLSKTKSASLAAPTLSNLLHNEKLYGPTDRDPRTKRDDIHYFKYPHVYLYDLWQTWAPIITLEWKPQELTNLDELPYPILKIGSFGRCPFIGDRNYDESSYKRVVKRYSRDKANKKYALQLRALFQYHADTLLNTSSVNDQTKNLIFIPHTCNDSTKSFKKWMQEKAKNFEKTELKKTDDSAVQDVRNEHADQTDEKNSILLNETETKEPPLKEEKENKQSIAEESNKYPQRKELAATPKLNHPVLATFARQETEEVPDDLCTLKTKSRQAFEIKASGAHQSNDVATSFGNGLGPTRASVMSKNMKSLSRLMVDRKLGVKQTNGNNKNYTATIATTAETSKENRHRLDFNALKKDEAPSKETGKDSAVHLETNRKPQNFPKVATKSVSADSKVHNDIKITTTESPTASKKSTSTNVTLHFNAQTAQTAQPVKKETVKNSGYCENCRVKYESLEQHIVSEKHLSFAENDLNFEAIDSLIENLRFQI
notes: Dbf4, Saccharomyces cerevisiae, full length (41% resolved in the map); Subunit of m1, written alone for the contacts seen in the cryo-EM structures; also called dumbbell former 4; source: budding yeast cells, purified as subunit of DDK

Experiments:
Experiment in all cases: cryo-EM structure; MD-(ATPγS): 250 nM DH released from beads by AluI + 750 nM DDK, 10 min 24 °C, buffer C with 3 mM ATPγS; GraFix glycerol gradient with glutaraldehyde; states I-III
Conditions in all cases: both partners purified
[1] = biological target: T1, Mcm4
[2] = biological target: T3, Mcm3 (Saccharomyces cerevisiae, UniProt P24279 1-971)
T3 construct: Mcm3, Saccharomyces cerevisiae, full length; Subunit of m2, written alone for the contacts seen in the cryo-EM structures
T3 sequence (P24279 whole entry): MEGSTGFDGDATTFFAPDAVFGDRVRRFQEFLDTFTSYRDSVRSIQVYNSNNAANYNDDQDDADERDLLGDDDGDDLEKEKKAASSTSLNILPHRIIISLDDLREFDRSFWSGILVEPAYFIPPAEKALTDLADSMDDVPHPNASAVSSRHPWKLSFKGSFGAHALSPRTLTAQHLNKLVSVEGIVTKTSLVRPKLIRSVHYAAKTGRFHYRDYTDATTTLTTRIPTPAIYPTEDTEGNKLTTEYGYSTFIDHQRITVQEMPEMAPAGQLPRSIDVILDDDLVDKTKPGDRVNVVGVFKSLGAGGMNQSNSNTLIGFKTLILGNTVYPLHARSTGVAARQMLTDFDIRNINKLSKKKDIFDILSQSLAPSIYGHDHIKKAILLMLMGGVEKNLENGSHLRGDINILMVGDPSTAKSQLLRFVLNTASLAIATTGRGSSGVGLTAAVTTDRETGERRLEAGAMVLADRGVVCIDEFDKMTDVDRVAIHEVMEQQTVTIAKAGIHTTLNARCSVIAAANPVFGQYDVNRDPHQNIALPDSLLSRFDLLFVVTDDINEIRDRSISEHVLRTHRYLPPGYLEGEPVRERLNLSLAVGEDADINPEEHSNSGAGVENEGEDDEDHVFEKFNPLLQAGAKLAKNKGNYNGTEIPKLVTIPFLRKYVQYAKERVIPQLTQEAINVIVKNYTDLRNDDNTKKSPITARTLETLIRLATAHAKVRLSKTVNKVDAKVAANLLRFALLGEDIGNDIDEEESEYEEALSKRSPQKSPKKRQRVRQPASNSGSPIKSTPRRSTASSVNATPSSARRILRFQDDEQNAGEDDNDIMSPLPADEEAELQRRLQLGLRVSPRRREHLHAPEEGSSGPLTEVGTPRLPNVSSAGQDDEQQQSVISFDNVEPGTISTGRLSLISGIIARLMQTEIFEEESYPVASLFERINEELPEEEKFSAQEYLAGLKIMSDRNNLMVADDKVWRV

[3] = biological target: T4, Mcm6 (Saccharomyces cerevisiae, UniProt P53091 1-1017)
T4 construct: Mcm6, Saccharomyces cerevisiae, full length; Subunit of m2, written alone for the contacts seen in the cryo-EM structures
T4 sequence (P53091 whole entry): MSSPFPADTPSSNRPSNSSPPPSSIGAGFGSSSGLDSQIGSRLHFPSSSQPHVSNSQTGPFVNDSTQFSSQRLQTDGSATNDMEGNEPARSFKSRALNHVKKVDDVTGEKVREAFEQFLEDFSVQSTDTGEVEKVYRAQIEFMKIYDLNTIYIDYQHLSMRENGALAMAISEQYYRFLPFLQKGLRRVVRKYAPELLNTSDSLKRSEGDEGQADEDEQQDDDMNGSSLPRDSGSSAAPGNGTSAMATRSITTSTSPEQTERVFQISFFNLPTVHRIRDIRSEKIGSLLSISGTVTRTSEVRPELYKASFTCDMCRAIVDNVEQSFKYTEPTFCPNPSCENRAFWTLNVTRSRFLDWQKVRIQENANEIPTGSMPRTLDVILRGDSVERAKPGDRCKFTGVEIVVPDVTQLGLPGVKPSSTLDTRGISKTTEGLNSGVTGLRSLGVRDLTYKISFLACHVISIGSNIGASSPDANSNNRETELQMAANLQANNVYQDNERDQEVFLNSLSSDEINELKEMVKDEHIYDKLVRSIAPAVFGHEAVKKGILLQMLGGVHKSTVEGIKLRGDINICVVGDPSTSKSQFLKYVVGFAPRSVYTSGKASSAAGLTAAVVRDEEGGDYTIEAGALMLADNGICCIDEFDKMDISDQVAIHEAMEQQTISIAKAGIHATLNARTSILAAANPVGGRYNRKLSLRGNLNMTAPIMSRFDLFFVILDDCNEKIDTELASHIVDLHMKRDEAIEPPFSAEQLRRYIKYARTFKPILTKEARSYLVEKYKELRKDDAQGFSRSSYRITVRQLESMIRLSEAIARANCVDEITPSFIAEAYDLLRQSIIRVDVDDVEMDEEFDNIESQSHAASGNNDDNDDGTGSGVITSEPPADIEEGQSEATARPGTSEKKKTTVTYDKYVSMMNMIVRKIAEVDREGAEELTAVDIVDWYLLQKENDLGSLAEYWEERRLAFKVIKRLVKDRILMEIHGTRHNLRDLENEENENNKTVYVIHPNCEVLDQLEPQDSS

[4] = biological target: B1
[5] = biological target: T2, Mcm2

Measured: binding result

B1
binds: [1] | [2]

B2
not listed: [2]
binds: all other assays above
